Where a chain is given by its changes, count along the chain named. One block for each molecule: values may come before it.
Tests used:
EphA5 antigen [1] = target: T1, EphA5 antigen (Homo sapiens, UniProt P54756); experiment: kd (1/s)
T1 construct: purchased R and D systems 3036-A5
Experimental: (§1) Table printed on a drawing sheet, FIG. 19
(§2) Head of the field: kd (1/s)
(§3) The patent's description of the figure: FIG. 19 is a table illustrating the Multi-cycle kinetic parameters of chimeric (VH0/VK0) and humanized variants (tested as purified proteins) binding to EphA5 antigen as determined using the Biacore T200. The relative KD was calculated by dividing the KD of the humanized variant by that of the VH0VK0 (first row) assayed in the same experiment. […]
(§4) Where the first naming reader finds the target: description_of_the_figure: humanized variants (tested as purified proteins) binding to EphA5 antigen as determined using the Biacore T200

EphA5 antigen [2] = target: T1, EphA5 antigen; experiment: ka (1/Ms)
Experimental: as §1
(§5) Head of the field: ka (1/Ms)
as §3, §4

EphA5 antigen [3] = target: T1, EphA5 antigen; experiment: KD (M)
Experimental: as §1
(§6) Head of the field: KD (M)
as §3, §4

rhEphA5 antigen [4] = target: T2, rhEphA5 antigen (Homo sapiens, UniProt P54756); experiment: KD (M)
T2 construct: purchased R and D systems 3036-A5
Experimental: (§7) Table printed on a drawing sheet, FIG. 13
as §6
(§8) The patent's description of the figure: FIG. 13 is a table illustrating the single cycle kinetic parameters of chimeric (VH0/VK0) and humanized 11C12 variants (tested as cell culture supernatants) binding to rhEphA5 antigen as determined using the Biacore T200. The relative KD was calculated by dividing the KD of the humanized variant by that of the VH0/VK0 (top row) assayed in the same experiment. The variants marked with ‘*’ have KD values that are within two-fold of, or are better than, the chimeric antibody. The chimeric and selected variants marked in ‘#’ were identified as the main leads for purification. […]
(§9) Where the first naming reader finds the target: description_of_the_figure: humanized 11C12 variants (tested as cell culture supernatants) binding to rhEphA5 antigen as determined using the Biacore T200

rhEphA5 antigen [5] = target: T2, rhEphA5 antigen; experiment: kd (1/s)
Experimental: as §7, §2, §8, §9

rhEphA5 antigen [6] = target: T2, rhEphA5 antigen; experiment: ka (1/Ms)
Experimental: as §7, §5, §8, §9

[7] = Thermal ramp stability (UNcle biostability platform, Sypro Orange and SLS); type: physicochemical
From the text: Thermal ramp stability experiments (Tm and Tagg) are well established methods for ranking proteins and formulations for stability. A protein's denaturation profile provides information about its thermal stability and represents a structural ‘fingerprint’ for assessing structural and formulation buffer modifications. A widely used measure of the thermal structural stability of a protein is the temperature at which it unfolds from the native state to a denatured state. For many proteins, this unfolding process occurs over a narrow temperature range and the mid-point of this transition is termed ‘melting temperature’ or ‘Tm’. To determine the melting temperature of a protein, UNcle measures the fluorescence of Sypro Orange (which binds to exposed hydrophobic regions of proteins) as the protein undergoes conformational changes.
Samples for each variant were formulated in PBS and Sypro Orange at a final concentration of 1 mg/mL. […] Samples were subjected to a thermal ramp from 25-95° C., with a ramp rate of 0.3° C./minute and excitation at 473 nm. Full emission spectra were collected from 250-720 nm, and the area under the curve between 510-680 nm was used to calculate the inflection points of the transition curves (Tonset and Tm). Monitoring of static light scattering (SLS) at 473 nm allowed the detection of protein aggregation, and Tagg (onset of aggregation) was calculated from the resulting SLS profiles. Thermal stability values determined lie in a broad range from 57.9 to 69.6° C. (Tm1), 55.1 to 65.2° C. (Tonset) and 65.6 to 70.2° C. (Tagg) with the humanized leads generally showing improved profiles when compared to the chimeric antibody. […] All humanized antibodies appear to have a higher Tm1, Tonset and Tagg compared to the chimeric antibody.

rhEphA5 antigen [8] = target: T2, rhEphA5 antigen; experiment: Multi-cycle kinetic analysis (Biacore T200) of purified antibodies; type: binding
Experimental: In order to assess the binding of the six lead humanized variants to rhEphA5 antigen, multi-cycle kinetic analysis (FIG. 68) was performed on purified material. Kinetic experiments were performed at 25° C. on a Biacore T200 running Biacore T200 Control software V2.0.1 and Evaluation software V3.0 (GE Healthcare, Uppsala, Sweden).
HBS-P+ (GE Healthcare, Uppsala, Sweden), supplemented with 1% BSA w/v (Sigma, Dorset, UK) was used as running buffer as well as for ligand and analyte dilutions. Purified lead antibodies were diluted to 0.5 μg/mL in running buffer and at the start of each cycle, loaded onto Fc2, Fc3 and Fc4 of an anti-human IgG CMS sensor chip (GE Healthcare, Little Chalfont, UK). Antibodies were captured at a flow rate of 10 μl/min to give an immobilization level (RL) of 50 RU. The surface was then allowed to stabilize.
Multi-cycle kinetic data was obtained using recombinant EphA5 as the analytes injected at a flow rate of 30 μl/min to minimize any potential mass transfer effects. A five point, three-fold dilution range from 1.11 nM to 270 nM of EphA5 was prepared in running buffer. For each concentration, the association phases were monitored for 210 seconds and the dissociation phase was measured for 900 seconds. Regeneration of the sensor chip surface was conducted between cycles using two injections of 3 M MgCl2. […]
Target sequence in this assay (P54756 25-573 limits assumed): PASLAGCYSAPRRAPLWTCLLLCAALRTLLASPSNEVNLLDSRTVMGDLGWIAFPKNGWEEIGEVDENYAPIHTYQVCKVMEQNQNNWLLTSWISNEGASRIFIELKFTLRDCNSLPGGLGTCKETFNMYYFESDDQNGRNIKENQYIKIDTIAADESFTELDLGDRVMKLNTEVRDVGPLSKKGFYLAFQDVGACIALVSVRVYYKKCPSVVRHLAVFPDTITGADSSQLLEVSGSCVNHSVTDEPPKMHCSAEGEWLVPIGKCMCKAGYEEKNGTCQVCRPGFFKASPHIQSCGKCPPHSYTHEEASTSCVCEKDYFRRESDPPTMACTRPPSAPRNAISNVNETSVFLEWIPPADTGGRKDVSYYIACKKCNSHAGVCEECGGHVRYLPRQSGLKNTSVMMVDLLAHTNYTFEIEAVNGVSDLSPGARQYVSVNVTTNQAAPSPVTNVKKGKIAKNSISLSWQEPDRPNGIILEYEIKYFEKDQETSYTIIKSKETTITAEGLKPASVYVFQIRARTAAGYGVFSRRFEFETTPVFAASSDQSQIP

H226 cells (EphA5−) = experiment: Flow cytometry cell binding, H226 negative control cells; type: cell-based, human; settings: from 10 μg/ml, three-fold three point dilution
Experimental: (§10) A H460 cell line stably expressing EphA5 (provided by Rutgers) was used, alongside H226 cells as a negative control, to test for antibody binding in a flow cytometry assay. The cell lines were first assessed for target expression using 10 μg/ml of the murine 11C12 provided by Rutgers) and MolgG1 non-binging control (Biolegend, California, US). Goat anti-mouse Alexa Fluor 647 (Thermo Fisher, Loughborough, UK) was used for antibody detection.
(§11) For cell binding assays, both cell lines were resuspended in FACS buffer (PBS+1% BSA+0.1% sodium azide) and seeded in 96 well U bottom plates at 1×105 (100 μl) cells per well. The chimeric and six purified humanized variants were tested in the assay alongside the 11C12 murine positive control, MolgG1 and HulgG1 non-binding controls. Samples were prepared at a starting concentration of 10 μg/ml in FACS buffer and underwent a four-fold seven point serial dilution for testing with H460 cells and a three-fold three point serial dilution for the H226 cells. […] Median fluorescence intensity (MFI) was measured using an Attune N×T Flow Cytometer (Thermo Fisher, Loughborough, UK) and 10,000 gated events were acquired per sample. For data analysis, live cell populations were gated based on the forward and side scatter dot plot allowing the Alexa Fluor 647 MFI values to be measured in the RL1 channel.

[9] = target: T3, H460 cell line stably expressing EphA5 (Homo sapiens, UniProt P54756); experiment: Flow cytometry cell binding, H460 cells; type: cell-based; settings: from 10 μg/ml, four-fold seven point dilution
T3 construct: endogenous in cells; host or cells: H460 human lung carcinoma cells (provided by Rutgers)
T3 sequence (P54756 25-1037): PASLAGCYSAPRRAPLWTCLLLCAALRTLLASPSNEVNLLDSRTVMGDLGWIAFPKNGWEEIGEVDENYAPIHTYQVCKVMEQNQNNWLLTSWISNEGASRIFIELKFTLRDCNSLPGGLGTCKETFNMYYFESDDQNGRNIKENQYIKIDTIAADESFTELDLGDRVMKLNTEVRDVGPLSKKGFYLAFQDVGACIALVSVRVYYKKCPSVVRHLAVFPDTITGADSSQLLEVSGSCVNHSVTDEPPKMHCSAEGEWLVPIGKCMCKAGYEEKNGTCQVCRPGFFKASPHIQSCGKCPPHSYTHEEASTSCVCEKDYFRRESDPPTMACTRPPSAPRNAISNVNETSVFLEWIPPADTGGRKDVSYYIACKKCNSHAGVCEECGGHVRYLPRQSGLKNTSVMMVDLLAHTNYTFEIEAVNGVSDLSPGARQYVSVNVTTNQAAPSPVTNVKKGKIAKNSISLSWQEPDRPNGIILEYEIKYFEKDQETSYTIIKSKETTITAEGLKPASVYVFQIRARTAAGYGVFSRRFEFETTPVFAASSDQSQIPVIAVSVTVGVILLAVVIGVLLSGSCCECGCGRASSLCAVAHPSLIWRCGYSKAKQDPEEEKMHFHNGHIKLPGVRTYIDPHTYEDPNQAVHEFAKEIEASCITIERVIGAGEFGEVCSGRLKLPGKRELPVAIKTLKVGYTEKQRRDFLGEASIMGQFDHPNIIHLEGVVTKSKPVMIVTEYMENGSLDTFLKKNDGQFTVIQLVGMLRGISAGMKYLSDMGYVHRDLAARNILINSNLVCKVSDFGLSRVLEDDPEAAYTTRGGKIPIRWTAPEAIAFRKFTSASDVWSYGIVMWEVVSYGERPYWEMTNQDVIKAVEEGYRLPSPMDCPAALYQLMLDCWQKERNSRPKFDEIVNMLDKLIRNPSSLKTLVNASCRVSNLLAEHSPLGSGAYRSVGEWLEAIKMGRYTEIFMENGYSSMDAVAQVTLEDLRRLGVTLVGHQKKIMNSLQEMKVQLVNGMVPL
Experimental: as §10, §11

kd (EphA5 antigen [1]): 0.00142 s⁻¹
ka (EphA5 antigen [2]): 1.31e+06 M⁻¹ s⁻¹
Kd (EphA5 antigen [3]): 1.08 nM
Kd (rhEphA5 antigen [4]): 0.956 nM
B1: VH3/VK4: humanized anti-EphA5 antibody, VH SEQ ID NO:4, VL SEQ ID NO:12; lead variant (antibody, V domains shown)
VH: EVQLVESGGGLVQPGGSLKLSCAASGFTFSTFGIHWVRQAPGKGLEWVAYISGASTTIYYADTVKGRFTISRDNSKNTLYLQMNSLRSEDTAMYYCARYGTSFPYGLDYWGQGTLVTVSS
VL: DIVMTQSPDSLAVSLGERATINCKSSQSVDYDGDSYMNWYQQKPGKAPKLLIYGASNLESGIPDRFSGSGSGTDFTLTISRLEPEDAASYYCQQSNEDPFTFGQGTKLEIK

kd (rhEphA5 antigen [5]): 0.00153 s⁻¹
ka (rhEphA5 antigen [6]): 1.15e-06 M⁻¹ s⁻¹
RMAX (rhEphA5 antigen [8]; 1:1 model fit): 47.8
kd (rhEphA5 antigen [8]; 1:1 model, binding to EphA5): 0.0015 s⁻¹
B2: VH0/VK0: chimeric antibody with murine 11C12 variable regions (SEQ ID NO:1, 8) and human IgG1/kappa constant regions (antibody, V domains shown)
VH: B1 VH with Q3T, V5K, L18R, G42E, S75P, Y80F, N84T, L115S
VL: DIVMTQSPGSLAVSLGQRATISCKASQSVDYDGDSYMNWYQQKPGQPPKLLIYGASNLESGIPARFSGSGSGTDFTLNIHPVEEEDAASYYCQQSNEDPFTFGSGTKLEIK
modifications: human IgG1/kappa constant regions
Average Tm2 (° C.) [7]: 65.83 °C
Average Tonset (° C.) [7]: 55.1 °C
transitions detected in thermal unfolding [7]: two transitions (Tm1 and Tm2)
Average Tm1 (° C.) ([7]; 1 mg/mL in PBS, ramp 25-95° C.): 57.9 °C
Average Tagg 473 (° C.) ([7]; SLS at 473 nm): 65.6 °C
Tm2 (° C.) ([7]; single replicate): 65.83 °C

B3: 11C12: anti-human EphA5 monoclonal murine antibody, parental and positive control (antibody, V domains shown)
VH: B1 VH with Q3T, V5K, L18R, G42E, S75P, Y80F, N84T, L115S
VL: B2 VL
binding to H226 (EphA5 negative) cells (H226 cells (EphA5−)): no binding
binding to H460 (EphA5+) cells, MFI dose response [9]: bound to the positive cell line in a concentration dependent manner

From US12662541B2, “Antibody-drug conjugates against the receptor tyrosine kinase EphA5” (Rutgers, The State University of New Jersey, priority 2021, dated 2026)
